Data published in article PMC8227597.

Molecular target: Biotinylated human ACE2 (angiotensin-converting enzyme 2) (human) (UniProt Q9BYF1)
Assay: SPR

Trimer spike of SARS-CoV-2, furin cleavage site deleted and two stabilizing mutations, C-terminal His-tag (domain or fragment)
Kd: 0.7 nM
